Assay results: PMC3575842

Experiments:
Assay in all cases: MITOMI saturation binding
z = target: T1, z (Drosophila melanogaster, UniProt P09956 1-575)
T1 sequence: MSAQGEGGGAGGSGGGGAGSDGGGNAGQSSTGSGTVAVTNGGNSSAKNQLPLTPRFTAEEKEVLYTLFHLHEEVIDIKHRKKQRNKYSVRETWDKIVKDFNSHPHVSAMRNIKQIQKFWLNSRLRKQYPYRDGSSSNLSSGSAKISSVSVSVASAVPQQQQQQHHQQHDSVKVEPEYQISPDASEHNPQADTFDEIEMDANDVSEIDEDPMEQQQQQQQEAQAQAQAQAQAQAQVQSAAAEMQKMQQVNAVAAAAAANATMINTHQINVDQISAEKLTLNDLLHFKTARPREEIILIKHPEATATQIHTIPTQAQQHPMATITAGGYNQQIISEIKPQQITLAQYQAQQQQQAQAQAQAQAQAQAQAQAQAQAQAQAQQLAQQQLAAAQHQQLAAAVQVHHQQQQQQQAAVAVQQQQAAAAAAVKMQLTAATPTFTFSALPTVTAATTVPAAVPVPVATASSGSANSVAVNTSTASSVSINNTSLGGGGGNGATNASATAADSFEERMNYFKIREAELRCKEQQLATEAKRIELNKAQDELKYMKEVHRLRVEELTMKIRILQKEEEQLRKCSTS

gooseberry (gsb) = gooseberry (gsb) (Drosophila melanogaster, UniProt P09082 1-427)
gooseberry-neuro (gsb-n) = gooseberry-neuro (gsb-n) (Drosophila melanogaster, UniProt P09083 1-449)
slbo = slbo (Drosophila melanogaster, UniProt Q02637 1-449)
Gsc = Gsc (Drosophila melanogaster, UniProt P54366 1-415)
Sox21a = Sox21a (Drosophila melanogaster, UniProt Q9VUD1 1-388)

Chain of slbo (Q02637 whole entry): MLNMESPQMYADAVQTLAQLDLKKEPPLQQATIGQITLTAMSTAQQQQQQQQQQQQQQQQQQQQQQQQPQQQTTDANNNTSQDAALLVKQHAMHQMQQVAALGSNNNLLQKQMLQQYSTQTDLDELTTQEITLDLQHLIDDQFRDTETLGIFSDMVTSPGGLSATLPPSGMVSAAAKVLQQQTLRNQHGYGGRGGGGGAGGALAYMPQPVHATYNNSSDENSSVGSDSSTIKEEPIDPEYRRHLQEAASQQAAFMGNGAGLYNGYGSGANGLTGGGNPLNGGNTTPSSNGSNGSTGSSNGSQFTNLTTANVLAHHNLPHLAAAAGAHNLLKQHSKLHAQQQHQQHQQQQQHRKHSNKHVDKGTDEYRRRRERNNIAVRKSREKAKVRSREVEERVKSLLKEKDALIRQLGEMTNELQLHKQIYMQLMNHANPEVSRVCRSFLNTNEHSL
Chain of gooseberry (gsb) (P09082 whole entry): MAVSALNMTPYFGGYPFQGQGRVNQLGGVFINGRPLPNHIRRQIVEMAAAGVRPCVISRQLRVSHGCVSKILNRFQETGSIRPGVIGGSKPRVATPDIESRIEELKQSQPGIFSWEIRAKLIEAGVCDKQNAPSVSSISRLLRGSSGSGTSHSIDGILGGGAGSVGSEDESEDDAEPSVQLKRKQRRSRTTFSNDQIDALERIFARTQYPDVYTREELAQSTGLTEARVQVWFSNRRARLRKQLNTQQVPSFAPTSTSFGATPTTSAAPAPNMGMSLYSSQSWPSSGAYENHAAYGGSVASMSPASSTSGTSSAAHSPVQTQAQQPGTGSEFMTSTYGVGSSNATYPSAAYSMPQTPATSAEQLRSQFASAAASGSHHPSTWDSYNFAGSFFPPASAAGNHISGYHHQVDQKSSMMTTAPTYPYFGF
Chain of gooseberry-neuro (gsb-n) (P09083 whole entry): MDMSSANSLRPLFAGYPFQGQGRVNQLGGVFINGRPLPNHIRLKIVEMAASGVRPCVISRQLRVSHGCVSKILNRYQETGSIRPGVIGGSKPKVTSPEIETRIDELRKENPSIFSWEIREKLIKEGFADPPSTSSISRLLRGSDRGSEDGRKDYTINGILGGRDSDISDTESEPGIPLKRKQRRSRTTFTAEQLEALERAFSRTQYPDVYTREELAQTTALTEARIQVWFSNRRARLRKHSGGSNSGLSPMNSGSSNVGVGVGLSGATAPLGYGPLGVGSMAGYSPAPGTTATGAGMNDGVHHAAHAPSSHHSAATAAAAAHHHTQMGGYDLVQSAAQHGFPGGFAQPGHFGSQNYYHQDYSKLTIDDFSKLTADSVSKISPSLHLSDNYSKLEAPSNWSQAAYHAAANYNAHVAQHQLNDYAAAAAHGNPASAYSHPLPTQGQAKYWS
Chain of Gsc (P54366 whole entry): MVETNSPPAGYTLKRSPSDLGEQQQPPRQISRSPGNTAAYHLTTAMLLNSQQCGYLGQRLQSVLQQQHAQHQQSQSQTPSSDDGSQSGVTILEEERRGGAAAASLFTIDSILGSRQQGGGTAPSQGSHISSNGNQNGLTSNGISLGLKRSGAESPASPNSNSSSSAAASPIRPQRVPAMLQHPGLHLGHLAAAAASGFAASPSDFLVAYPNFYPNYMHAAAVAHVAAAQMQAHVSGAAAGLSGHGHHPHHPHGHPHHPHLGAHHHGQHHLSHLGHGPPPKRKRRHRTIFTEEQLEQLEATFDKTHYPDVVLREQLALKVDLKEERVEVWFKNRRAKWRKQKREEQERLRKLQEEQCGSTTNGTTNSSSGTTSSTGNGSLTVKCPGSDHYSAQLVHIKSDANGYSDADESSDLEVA

B1: prd motif (dsDNA)
DNA 1: CGCCCAATTTGTCACGCTCTCCGGCGGTATGAC
DNA 2: GTCATACCGCCGGAGAGCGTGACAAATTGGGCG
z
  binding result: binds
Gooseberry (gsb)
  binding result: binds
gooseberry-neuro (gsb-n)
  binding result: binds

B2: gt motif (dsDNA)
DNA 1: CGCATTACGTAATAACTCCGGCGGTATGAC
DNA 2: GTCATACCGCCGGAGTTATTACGTAATGCG
slbo
  binding result: binds

B3: bcd motif (dsDNA)
DNA 1: CGCGGATTAGCTCCGGCGGTATGAC
DNA 2: GTCATACCGCCGGAGCTAATCCGCG
z
  binding result: binds
Gsc
  binding result: binds

B4: D motif (dsDNA)
DNA 1: CGCGTCCATTGTTCTCTCCGGCGGTATGAC
DNA 2: GTCATACCGCCGGAGAGAACAATGGACGCG
Sox21a
  binding result: binds
